{
  "source": "patent US7919300B2",
  "about": "“Glucose isomerase mutants” (priority 2004, dated 2011)",
  "proteins": {"B1": {"name": "Thermoanaerobacterium saccharolyticum glucose isomerase mutant MGI-4 (W139F/R182A/F187S/T299Q), SEQ ID NO.: 32 (Thermoanaerobacterium saccharolyticum; … (protein)", "chain": "MNKYFENVSKIKYEGPKSNNPYSFKFYNPEEVIDGKTMEEHLRFSIAYWHTFTADGTDQFGKATMQRPWNHYTDPMDIAKARVEAAFEFFDKINAPFFCFHDRDIAPEGDTLRETNKNLDTIVAMIKDYLKTSKTKVLFGTANLFSNPRFVHGASTSCNADVFAYSAAQVKKALEITKELGAENYVSWGGREGYETLLNTDMELELDNFARFLHMAVDYAKEIGFEGQFLIEPKPKEPTKHQYDFDVANVLAFLRKYDLDKYFKVNIEANHATLAFHDFQHELRYARINGVLGSIDANQGDMLLGWDTDQFPTDIRMTTLAMYEVIKMGGFDKGGLNFDAKVRRASFEPEDLFLGHIAGMDAFAKGFKVAYKLVKDGVFDKFIEERYASYKEGIGADIVSGKADFKSLEKYALEHSQIVNKSGRQELLESILNQYLFAE"}},
  "substrate": "OC[C@H]1OC(O)[C@H](O)[C@@H](O)[C@@H]1O",
  "assay": "Measurement of kinetic parameters of glucose isomerase mutant MGI-4 with D-glucose as substrate",
  "assay_type": "biochemical, Thermoanaerobacterium saccharolyticum",
  "settings": "pH 6.5, 20 mM sodium phosphate, 250 μM CoCl2, 5 mM MgCl2, 10 minutes",
  "method": "Fragment AFSR was amplified using primer pair 182AF (see Table 1 below) and 187SR (see Table 1) on the following condition: 20 mM Tris-HCl (pH 8.8), 10 mM KCl, 10 mM (NH4)2SO4, 2 mM MgSO4, 0.1% Triton X-100, 0.4 μM Primer 182AF and 0.4 μM Primer 187SR, 50 μM DATP, 50 μM dTTP, 50 μM dCTP, 50 μM dGTP, 1.5 U Pfu DNA polymerase, 20 ng pGEMT-TS, and the total volume was adjusted to 50 μl with distilled water. The PCR amplification program for the reaction was: 95° C., 3 min; then 35 cycles of 95° C., 50 seconds, 52° C., 30 seconds, 72° C., 180 seconds; and with an additional 5 minutes at 72° C. at the end of the reaction. The PCR product, fragment AFSR, was separated on 1% agarose gel and recovered using QIAquick Gel Extraction Kit (QIAGEN, German). Fragment SFQR was amplified using primer pair 187SF (Example 4) and 299QR (Example 5) on the following condition: 20 mM Tris-HCl (pH 8.8), 10 mM KCl, 10 mM (NH4)2SO4, 2 mM MgSO4, 0.1% Triton X-100, 0.4 μM Primer 187SF and 0.4 μM Primer 299QR, 50 μM dATP, 50 μM dTTP, 50 μM dCTP, 50 μM dGTP, 1.5 U Pfu DNA polymerase, 20 ng pGEMT-TS, and the total volume was adjusted to 50 μl with distilled water. The PCR amplification program for the reaction was: 95° C., 3 min; then 35 cycles of 95° C., 50 seconds, 52° C., 30 seconds, 72° C., 180 seconds; and with an additional 5 minutes at 72° C. at the end of the reaction. The PCR product, fragment SFQR, was separated on 1% agarose gel and recovered using QIAquick Gel Extraction Kit (QIAGEN, German). The full-length glucose isomerase gene was then amplified on the following condition: 20 mM Tris-HCl (pH 8.8), 10 mM KCl, 10 mM (NH4)2SO4, 2 mM MgSO4, 0.1% Triton X-100, 0.4 μM Primer T1 and 0.4 μM Primer T2, 50 μM dATP, 50 μM dTTP, 50 μM dCTP, 50 μM dGTP, 1.5 U Pfu DNA polymerase, 20 ng fragment T1FR (Example 2), 20 ng fragment FFAR (Example 6), 20 ng […], 20 ng fragment SFQR and 20 ng fragment QFT2 (Example 5), and the total volume was adjusted to 50 μl with distilled water. The PCR amplification program for the reaction was: 95° C., 3 min; then 35 cycles of 95° C., 50 seconds, 52° C., 30 seconds, 72° C., 180 seconds; and with an additional 5 minutes at 72° C. at the end of the reaction. The full-length mutant MGI-4 was separated on 1% agarose gel and recovered using QIAquick Gel Extraction Kit (QIAGEN, German). Plasmid pGEMT-MGI-4, generated after ligation between MGI-4 and pGEMT-Easy, was transformed into competent E. coli HB101 and the transformants were screened for clones of glucose isomerase activity on 1% MacConkey agar plates containing 1% D-xylose and 50 mg/L ampicillin. pGEMT-MGI-4 DNA was then isolated from the positive clones and sequenced. The sequencing results confirmed that the desired site-directed mutations were correctly introduced. Its amino acid sequence was shown as SEQ ID NO.: 32 (see the Sequence Listing below).\nThe isolation and purification of glucose isomerase mutant MGI-4 were as described in Example 9, except the plasmid used was pGEMT-MGI-4. The partially purified enzyme was shown on FIG. 1. Other glucose isomerase mutants were also isolated and purified as described in Example 9.",
  "data": [
    {"protein": "B1", "values": [
      {"measurement": "Km", "setting": "other: MGI-4, 65° C., 65.0 °C", "value": 27.9, "unit": "mM"},
      {"measurement": "kcat", "setting": "other: MGI-4, 65° C., 65.0 °C", "value": 16.817, "unit": "s⁻¹"},
      {"measurement": "kcat/Km", "setting": "other: MGI-4, 65° C., 65.0 °C", "value": 602, "unit": "M⁻¹ s⁻¹"},
      {"measurement": "Km", "setting": "other: MGI-4, 80° C., 80.0 °C", "value": 51.3, "unit": "mM"},
      {"measurement": "kcat", "setting": "other: MGI-4, 80° C., 80.0 °C", "value": 49.685, "unit": "s⁻¹"},
      {"measurement": "kcat/Km", "setting": "other: MGI-4, 80° C., 80.0 °C", "value": 968, "unit": "M⁻¹ s⁻¹"}
    ]}
  ]
}
